# Positions count from the first letter of the chain named. Numbers in names are those of the source.
# T1: rhCD73 bound to his-tag magnet beads (human, UniProt P21589 27-547, limits assumed)
# T1 sequence: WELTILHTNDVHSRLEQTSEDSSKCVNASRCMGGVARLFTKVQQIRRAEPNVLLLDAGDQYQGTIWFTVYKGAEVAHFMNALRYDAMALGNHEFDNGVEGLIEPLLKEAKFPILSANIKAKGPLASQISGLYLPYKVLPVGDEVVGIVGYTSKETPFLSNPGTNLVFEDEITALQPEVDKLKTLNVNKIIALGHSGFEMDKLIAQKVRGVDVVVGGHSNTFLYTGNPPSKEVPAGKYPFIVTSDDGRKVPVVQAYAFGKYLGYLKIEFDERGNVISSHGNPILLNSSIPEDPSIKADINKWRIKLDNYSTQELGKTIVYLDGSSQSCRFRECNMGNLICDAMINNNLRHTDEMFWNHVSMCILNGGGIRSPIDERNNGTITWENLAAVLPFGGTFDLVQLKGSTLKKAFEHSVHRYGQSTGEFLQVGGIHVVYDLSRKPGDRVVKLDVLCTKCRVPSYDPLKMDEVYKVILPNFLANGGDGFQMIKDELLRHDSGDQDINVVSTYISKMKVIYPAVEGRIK
# T2: human CD73 on cells (human, UniProt P21589 27-549)
# T2 sequence: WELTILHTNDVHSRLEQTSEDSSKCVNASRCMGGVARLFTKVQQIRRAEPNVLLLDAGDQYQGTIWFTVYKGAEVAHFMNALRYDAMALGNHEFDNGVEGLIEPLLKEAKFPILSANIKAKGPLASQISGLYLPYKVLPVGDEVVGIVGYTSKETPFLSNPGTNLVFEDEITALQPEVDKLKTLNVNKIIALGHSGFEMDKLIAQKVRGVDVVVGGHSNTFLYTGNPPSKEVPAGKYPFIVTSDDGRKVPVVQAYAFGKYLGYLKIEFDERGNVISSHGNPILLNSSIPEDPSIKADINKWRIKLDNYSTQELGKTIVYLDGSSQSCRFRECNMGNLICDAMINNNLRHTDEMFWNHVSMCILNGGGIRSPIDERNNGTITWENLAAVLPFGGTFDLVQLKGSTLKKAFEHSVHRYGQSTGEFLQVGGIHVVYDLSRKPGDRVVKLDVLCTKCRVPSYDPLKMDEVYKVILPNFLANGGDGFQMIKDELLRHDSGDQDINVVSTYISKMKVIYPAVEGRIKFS
# T3: N-hCD73-his (N-terminal domain of human CD73, residues 26-336, His tag) (human, UniProt P21589 26-336)
# T3 sequence: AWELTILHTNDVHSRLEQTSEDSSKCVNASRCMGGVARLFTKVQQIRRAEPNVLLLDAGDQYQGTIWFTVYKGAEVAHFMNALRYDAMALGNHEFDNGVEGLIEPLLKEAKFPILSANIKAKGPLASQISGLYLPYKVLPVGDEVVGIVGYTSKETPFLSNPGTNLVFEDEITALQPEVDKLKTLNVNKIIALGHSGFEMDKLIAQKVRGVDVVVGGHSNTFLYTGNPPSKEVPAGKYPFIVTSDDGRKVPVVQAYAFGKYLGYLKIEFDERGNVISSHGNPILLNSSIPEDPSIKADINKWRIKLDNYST
# B1: CD73.10-IgG2-C219S-IgG1.1f (antibody)
# heavy: QVQLVESGGGVVQPGRSLRLSCAASGFTFSNYGMHWVRQAPGKGLEWVAVIWYDESNKYYPDSVKGRFTISRDNSKNTLYLQMNSLRAEDTAVYYCARGGSSWYPDSFDIWGQGTMVTVSSASTKGPSVFPLAPCSRSTSESTAALGCLVKDYFPEPVTVSWNSGALTSGVHTFPAVLQSSGLYSLSSVVTVPSSNFGTQTYTCNVDHKPSNTKVDKTVERKSCVECPPCPAPPVAGPSVFLFPPKPKDTLMISRTPEVTCVVVDVSHEDPEVKFNWYVDGVEVHNAKTKPREEQYNSTYRVVSVLTVLHQDWLNGKEYKCKVSNKALPSSIEKTISKAKGQPREPQVYTLPPSREEMTKNQVSLTCLVKGFYPSDIAVEWESNGQPENNYKTTPPVLDSDGSFFLYSKLTVDKSRWQQGNVFSCSVMHEALHNHYTQKSLSLSPG
# light: not shown
# notes: also called CD73.10-IgG2CS-IgG1.1f; CD73.10-IgG2S-IgG1.1f
# B2: CD73.10-IgG2-C219S (antibody)
# heavy: B1 heavy with K274Q, Y296F, Y300F, L309V, A327G, S330A, S331P, A339T, V397M
# light: not shown
# notes: also called CD73.10-IgG2CS; CD73.10-IgG2S
# Experiments:
# [1] = target: T1, rhCD73 bound to his-tag magnet beads; assay: cell-based or functional assay
# [2] = target: T2, human CD73 on cells; assay: cell-based or functional assay
# [3] = target: T2, human CD73 on cells; assay: flow cytometry, Calu6 cells
# Protocol: Titration binding curves were produced with CD73 antibodies on Calu6 (CD73 endogenous expressors; human pulmonary adenocarcinoma cell line), DMS114 (CD73 negative; human small cell lung cancer cell line), CHO-cynoCD73 (cynoCD73-transfected) and CHO-K1 (cynoCD73 negative), cells using Alexa Fluor® 647 Goat Anti-Human IgG (H+L) as a secondary antibody, Invitrogen Cat#A-21445, using the following method: 100000 cells were plated in 100 uL PBS+2% FBS per well and blocked for 20 min. Using a U-bottom 96-deep well plate, volumes of antibody and PBS+2% FBS were combined as dictated by Table 12 below.
# An 8-point serial dilution was performed by diluting a sixth of the volume (90 uL) into […], PBS+2% FBS. The cell plate was spun down for 5 minutes at 1500 rpm. 100 uL of diluted antibody was added per well of the plate. 100 uL PBS+2% FBS were added to all other wells. […] The plates were spun down at 1500 rpm for 5 min and washed in 200 uL PBS+2% FBS per well. The plates were washed again, resuspended in 200 uL 2% FBS in PBS per well and the samples were run.
# [4] = target: T2, human CD73 on cells; assay: binding titration on Calu6 cells, average of 2-6 experiments
# [5] = target: T3, N-hCD73-his (N-terminal domain of human …); assay: SPR
# [6] = target: T3, N-hCD73-his (N-terminal domain of human …); assay: SPR, comparison of all IgG2 molecules
# Protocol: For these experiments, protein A (Pierce) was immobilized to a density of 3000-4000 RU on flow cells 1-4 of a CM5 sensor chip (GE Healthcare) using standard ethyl(dimethylaminopropyl) carbodiimide (EDC)/N-hydroxysuccinimide […] chemistry, with ethanolamine blocking, in a running buffer of 0.01 M HEPES pH 7.4, 0.15 M NaCl, 3 mM EDTA, 0.005% v/v tween 20. […] The running buffer for the kinetic experiments was 10 mM sodium phosphate, 130 mM sodium chloride, 0.05% tween 20, pH 7.1. The surfaces were regenerated after each cycle using two 30 s pulses of 10 mM glycine pH 1.5 at a flow rate of 30 μl/min. Sensogram data was double-referenced and then fitted to a 1:1 Langmuir model using Biacore T100 evaluation software v2.0.4, to determine the association rate constant (ka), the dissociation rate constant (kd), and the equilibrium dissociation constant (KD).
Binder,"EC50 (nM), inhibition of bead-bound human CD73 enzymatic activity [1]","EC50 (nM), high-content internalization assay, Calu6, 2 h [2]","Ymax, high-content internalization assay (percent of 100 nM 11F11) [2]",EC50 [3],EC50 [4],Kd [5],fold lower affinity than 11F11 or CD73.4 [6]
B1,4.84 nM,0.87 nM,99%,0.85 nM,0.85 nM,,
B2,7.54 nM,0.67 nM,99%,0.85 nM,0.85 nM,~5 nM,~10 fold

# From patent US20190284293A1 (Bristol-Myers Squibb, published 2019)
